Article PMC1635293
Like-named read-outs stand apart in the source and are kept apart here.

B1: dsDNA encoding the same sequence as the dsRNA (dsDNA)
DNA 1: GGGCTTTCAGTCGGATGTTTGCAGC
DNA 2: TGCAAACATCCGACTGAAAGC
B2: dsRNA with 2 nt 5' overhang (dsRNA)
RNA 1: GGGCUUUCAGUCGGAUGUUUG
RNA 2: UGCAAACAUCCGACUGAAAGC
B3: dsRNA with 2 nt 3' overhang (22 bp dsRNA) (dsRNA)
RNA 1: GGGCUUUCAGUCGGAUGUUUGCAGC
RNA 2: UGCAAACAUCCGACUGAAAGC

Assays:
Assay in all cases: competition
[1] = target: Exportin-5 (dmExp5);dmRanQ69L (GTP form) (Drosophila melanogaster?;Drosophila, UniProt Q9BP41;Q9VZ23 1-1241;1-216, |Q69L)
[2] = target: T1, Msn5p (yeast exportin-5 orthologue);Gsp1pQ71L (GTP form) (budding yeast;yeast, UniProt P52918;P32835 1-1224;1-219, |Q71L)
[3] = target: T2, Exportin-5 (hsExp5);hsRanQ69L (GTP form) (human;human, UniProt Q9HAV4;P62826 1-1204;1-216, |Q69L)
T2 sequence (Q9HAV4 whole entry Q69L, one chain of several): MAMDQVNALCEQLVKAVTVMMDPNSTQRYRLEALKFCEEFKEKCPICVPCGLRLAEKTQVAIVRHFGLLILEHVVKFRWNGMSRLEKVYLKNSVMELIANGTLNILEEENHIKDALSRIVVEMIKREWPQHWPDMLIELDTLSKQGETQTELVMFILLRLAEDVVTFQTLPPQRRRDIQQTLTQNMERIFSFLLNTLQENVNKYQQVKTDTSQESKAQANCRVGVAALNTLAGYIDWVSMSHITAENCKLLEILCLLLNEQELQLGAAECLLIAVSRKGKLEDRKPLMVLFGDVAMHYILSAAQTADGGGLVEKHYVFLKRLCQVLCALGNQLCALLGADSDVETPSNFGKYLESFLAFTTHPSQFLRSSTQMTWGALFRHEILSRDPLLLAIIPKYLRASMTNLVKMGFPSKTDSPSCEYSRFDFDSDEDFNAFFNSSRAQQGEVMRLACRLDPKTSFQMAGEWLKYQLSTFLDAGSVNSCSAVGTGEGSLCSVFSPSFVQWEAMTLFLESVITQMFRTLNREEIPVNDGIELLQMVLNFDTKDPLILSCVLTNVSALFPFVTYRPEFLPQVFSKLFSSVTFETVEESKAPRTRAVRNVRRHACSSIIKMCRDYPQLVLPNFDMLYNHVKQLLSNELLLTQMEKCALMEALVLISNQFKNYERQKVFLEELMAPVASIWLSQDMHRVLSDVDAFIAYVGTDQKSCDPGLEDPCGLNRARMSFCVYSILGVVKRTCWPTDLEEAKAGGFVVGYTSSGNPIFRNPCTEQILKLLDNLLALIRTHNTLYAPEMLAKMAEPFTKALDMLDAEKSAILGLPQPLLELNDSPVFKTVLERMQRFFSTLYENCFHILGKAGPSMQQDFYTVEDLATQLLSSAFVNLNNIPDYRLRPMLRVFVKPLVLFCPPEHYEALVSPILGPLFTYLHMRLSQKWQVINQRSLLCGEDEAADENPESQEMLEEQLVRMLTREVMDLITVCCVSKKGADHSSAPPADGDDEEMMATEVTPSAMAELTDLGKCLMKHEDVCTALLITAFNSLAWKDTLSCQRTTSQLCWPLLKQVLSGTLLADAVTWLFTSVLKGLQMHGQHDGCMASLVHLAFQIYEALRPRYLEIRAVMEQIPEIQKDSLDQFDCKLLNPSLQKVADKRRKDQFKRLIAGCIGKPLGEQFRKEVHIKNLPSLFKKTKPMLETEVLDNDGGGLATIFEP

[4] = target: T1, Msn5p (yeast exportin-5 …); remark: listed apart in the source
[5] = target: T2, Exportin-5 (hsExp5);hsRanQ69L (GTP form); remark: listed apart in the source

| Binder | binding result [1] | binding result [2] | binding result [3] | binding result [4] | binding result [5] |
| --- | --- | --- | --- | --- | --- |
| B1 | no binding | no binding | no binding | – | – |
| B2 | – | – | – | no binding | no binding |
| B3 | binds | – | binds | – | – |
